One series addresses T1, BcUGlcAE (Bacillus cytotoxicus, UniProt A7GQD3).
T1 sequence (A7GQD3 1-314): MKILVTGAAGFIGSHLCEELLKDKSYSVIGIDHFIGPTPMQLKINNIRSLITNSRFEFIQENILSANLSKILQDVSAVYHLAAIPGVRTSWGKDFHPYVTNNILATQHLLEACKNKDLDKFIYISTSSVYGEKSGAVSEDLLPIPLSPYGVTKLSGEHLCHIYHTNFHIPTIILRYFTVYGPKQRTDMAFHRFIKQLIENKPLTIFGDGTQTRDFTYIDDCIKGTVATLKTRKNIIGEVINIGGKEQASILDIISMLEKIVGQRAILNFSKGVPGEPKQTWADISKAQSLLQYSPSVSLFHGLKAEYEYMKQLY
The experiment in a line: HPLC product assay, inhibition. Format: biochemical. As to conditions: 1 mM UDP-GlcA, 1 mM NAD+, 50 mM phosphate pH 7.6, 37 °C.

Substrate in series [1]: Cc1cn([C@H]2C[C@H](O)[C@@H](COP(=O)(O)OP(=O)(O)O[C@H]3O[C@H](C(=O)O)[C@@H](O)[C@H](O)[C@H]3O)O2)c(=O)[nH]c1=O
The experiment in a line: HPLC. Format: biochemical, Bacillus cytotoxicus. The following applies: 1 mM NAD+, 50 mM sodium phosphate pH 7.6, 37 °C.

Substrate in series [2]: O=C(O)[C@H]1O[C@H](OP(=O)(O)OP(=O)(O)OC[C@H]2O[C@@H](n3ccc(=O)[nH]c3=O)[C@H](O)[C@@H]2O)[C@H](O)[C@@H](O)[C@@H]1O
The experiment in a line: HPLC. Format: biochemical, Bacillus cytotoxicus. The following applies: 1 mM NAD+, 50 mM sodium phosphate pH 7.6, 37 °C.

Consider `O=c1ccn([C@@H]2O[C@H](COP(=O)(O)OP(=O)(O)O[C@H]3OC[C@@H](O)[C@H](O)[C@H]3O)[C@@H](O)[C@H]2O)c(=O)[nH]1` [UDP-Xyl], for which the inhibition entry at BcUGlcAE is “the epimerase was highly inhibited by UDP and to a lesser extent by UDP-Xyl”.
The same measure, in the same setting: as for `O=c1ccn([C@@H]2O[C@H](COP(=O)(O)OP(=O)(O)O)[C@@H](O)[C@H]2O)c(=O)[nH]1` [UDP], the entry is “the epimerase was highly inhibited by UDP and to a lesser extent by UDP-Xyl”.

B1: BcUGlcAE (Bacillus cytotoxicus NVH 391-98) (protein)
chain: MKILVTGAAGFIGSHLCEELLKDKSYSVIGIDHFIGPTPMQLKINNIRSLITNSRFEFIQENILSANLSKILQDVSAVYHLAAIPGVRTSWGKDFHPYVTNNILATQHLLEACKNKDLDKFIYISTSSVYGEKSGAVSEDLLPIPLSPYGVTKLSGEHLCHIYHTNFHIPTIILRYFTVYGPKQRTDMAFHRFIKQLIENKPLTIFGDGTQTRDFTYIDDCIKGTVATLKTRKNIIGEVINIGGKEQASILDIISMLEKIVGQRAILNFSKGVPGEPKQTWADISKAQSLLQYSPSVSLFHGLKAEYEYMKQLY
Consider B1, for which, in “HPLC [1]”, the Km was 180 ± 10 µM, the kcat was 2.1 ± 0.1 s⁻¹ and the kcat/Km was 12000 ± 400 M⁻¹ s⁻¹. For the same molecule, in the series “HPLC [2]”, the Km came out at 120 ± 10 µM, the kcat came to 3.2 ± 0.1 s⁻¹ and the kcat/Km is 26000 ± 1400 M⁻¹ s⁻¹.

For orientation: Km means the concentration of substrate that gives half-maximal velocity. By kcat is commonly meant the maximal rate divided by the concentration of active sites. Usually kcat/Km stands for the turnover number divided by the Michaelis constant.

These data come from publication PMC3240692 (The FEBS journal, 2011).
